From US20210196842A1, “SITE-SPECIFIC RADIOFLUORINATION OF PEPTIDES WITH 8-[18F]-FLUOROOCTANOIC ACID CATALYZED BY LIPOIC ACID LIGASE” (THE REGENTS OF THE UNIVERSITY OF CALIFORNIA, priority 2015, published 2021)

Experiments:
[1] = target: T1, scrambled LAP peptide (Ac-EFDDWKYADVGLI)
T1 chain: EFDDWKYADVGLI

[2] = target: T2, LAP peptide (Ac-GFEIDKVWYDLDA-OH)
T2 chain: GFEIDKVWYDLDA

[3] = target: human urokinase plasminogen activator receptor (uPAR), biotinylated (human) (UniProt Q03405); assay: BLI (Octet RED384), biotinylated human uPAR on streptavidin biosensors, Fab in solution, 1:1 model
human urokinase plasminogen activator receptor (uPAR), biotinylated (human), sequence (Q03405 23-303 limits assumed): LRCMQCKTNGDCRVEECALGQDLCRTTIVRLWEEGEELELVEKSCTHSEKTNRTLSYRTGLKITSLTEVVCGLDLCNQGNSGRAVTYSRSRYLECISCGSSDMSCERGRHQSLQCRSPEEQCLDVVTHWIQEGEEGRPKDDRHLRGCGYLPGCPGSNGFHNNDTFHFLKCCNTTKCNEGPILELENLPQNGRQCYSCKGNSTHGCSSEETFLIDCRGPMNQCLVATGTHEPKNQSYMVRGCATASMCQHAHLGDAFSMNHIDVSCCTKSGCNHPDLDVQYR

[4] = target: T3, human urokinase plasminogen activator receptor (uPAR), biotinylated (human, UniProt Q03405 23-303); assay: as above
T3 construct: also called human uPAR; biotinylated human uPAR

human uPAR = human uPAR (Homo sapiens, UniProt Q03405); assay: Binding of 2G10 Fabs to uPAR measured using Octet instrument
human uPAR, sequence (Q03405 23-305): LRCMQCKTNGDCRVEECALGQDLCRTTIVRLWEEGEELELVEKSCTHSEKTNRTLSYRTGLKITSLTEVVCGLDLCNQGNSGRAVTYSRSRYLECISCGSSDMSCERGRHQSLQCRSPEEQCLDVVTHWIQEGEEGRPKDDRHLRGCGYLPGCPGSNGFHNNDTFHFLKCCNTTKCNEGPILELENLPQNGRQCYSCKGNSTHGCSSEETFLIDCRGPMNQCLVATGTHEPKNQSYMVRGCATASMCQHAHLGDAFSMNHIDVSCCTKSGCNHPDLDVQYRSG
Description: Measurement of 2G10-Fab-FA-LAP Affinity for uPAR: Stocks solutions were diluted to the following concentrations in 100 μL PBS: 2G10-Fab-LAP (10 μM), Lp1AΔHis (50 μM), FA (750 μM), ATP (3 mM), Mg(OAc)2 (5 mM). The resulting solution was incubated at 30° C. for 15 h and then quenched with 100 μL. 360 mM EDTA. Kinetic constants this sample, along with 2G10 and 2G10-Fab-LAP, were determined using an Octet RED384 instrument (ForteBio). Four concentrations of each Fab (500 nM, 250 nM, 100 nM and 50 nM) were tested for binding to the biotinylated antigen (human uPAR) immobilized on ForteBio streptavidin SA biosensors. All measurements were performed at room temperature in 384-well microplates and the running buffer was PBS with 0.1% (w/v) bovine serum albumin (BSA) and 0.02% (v/v) Tween 20. Biotinylated human uPAR was loaded for 180 s from a solution of 150 nM, baseline was equilibrated for 60 s, and then the Fabs were associated for 120 s followed by 300 s disassociation. Between each Fab sample, the biosensor surfaces were regenerated three times by exposing them to 10 mM glycine, pH 1.5 for 5 s followed by PBS for 5 s. Data were analyzed using a 1:1 interaction model on the ForteBio data analysis software 8.2.

B1: LplA-His6 (E. coli lipoic acid ligase) (protein)
chain: MSTLRLLISDSYDPWFNLAVEECIFRQMPATQRVLFLWRNADTVVIGRAQNPWKECNTRRMEEDNVRLARRSSGGGAVFHDLGNTCFTFMAGKPEYDKTISTSIVLNALNALGVSAEASGRNDLVVKTTEGDRKVSGSAYRETKDRGFHHGTLLLNADLSRLANYLNPDKKKLAAKGITSVRSRVTNLTELLPEITHEQVCEAIREAFFAHYGERVEAEIISPDKTPDLPNFAETFARQSSWEWNFGQAPAFSHLLDERFTWGGVELHFDVEKGHITRAQVFTDSLNPAPLEALAGRLQGCLYRADMLQQECEALLVDFPEQEKELRELSTWIAGAVR
Yield/% (radio-TLC conjugation yield of [18F]-FA) [1]: 0%
conjugation of FA to peptide, RP-HPLC [1]: No productive reaction was observed after 60 minutes
Yield/% (radio-TLC conjugation yield of [18F]-FA) [2]: 91%
conversion of LAP to [19F]-FA-LAP, RP-HPLC [2]: complete at 30 minutes

B2: 2G10-Fab-LAP (Fab, V domains shown)
VH: QVQLQQSGPGLVKPSQTLSLTCAISGDSVSSNSAAWNWIRQSPSRGLEWLGRTYYRSKWYNDYAVSVKSRIIINPDTSKNQFSLQLNSVTPEDTAVYYCARDPGGPLDDSFDIWGQGTMVTVSS
VL: DVVMTQSPLSLPVTPGEPASISCRSSQSLLRSNGYNYLDWYLQKPGQSPQLLIYLGSIRASGVPDRFSGSGSGTDFTLRISRVEAEDVGVYYCMQALQTPFTFGQGTKLEIKR
Kd [3]: 0.031 µM

B3: 2G10-Fab (Fab, V domains shown)
VH: B2 VH
VL: B2 VL
Kd [4]: 0.038 µM

B4: 2G10-Fab-LAP: 2G10 Fab with the LAP peptide sequence inserted at the C-terminus of the heavy chain (antibody)
heavy: QVQLQQSGPGLVKPSQTLSLTCAISGDSVSSNSAAWNWIRQSPSRGLEWLGRTYYRSKWYNDYAVSVKSRIIINPDTSKNQFSLQLNSVTPEDTAVYYCARDPGGPLDDSFDIWGQGTMVTVSSASTKGPSVFPLAPSSKSTSGGTAALGCLVKDYFPEPVTVSWNSGALTSGVHTFPAVLQSSGLYSLSSVVTVPSSSLGTQTYICNVNHKPSNTKVDKKVEPKSCAAHHHHHHAAGFEIDKVWYDLDA
light: DVVMTQSPLSLPVTPGEPASISCRSSQSLLRSNGYNYLDWYLQKPGQSPQLLIYLGSIRASGVPDRFSGSGSGTDFTLRISRVEAEDVGVYYCMQALQTPFTFGQGTKLEIKRTVAAPSVFIFPPSDEQLKSGTASVVCLLNNFYPREAKVQWKVDNALQSGNSQESVTEQDSKDSTYSLSSTLTLSKADYEKHKVYACEVTHQGLSSPVTKSFNRGEC
Kd (human uPAR; Octet RED384, biotinylated human uPAR on streptavidin biosensors, room temperature, 1:1 interaction model, read-out: KD (nM), dissociation constants for 2G10-Fabs with uPAR): 31 ± 2.2 nM
differences in binding affinity for uPAR between the Fabs (human uPAR; Octet, after bioconjugation with excess [19F]-FA): No significant differences in binding affinity
